Reference: publication doi:10.1101/2020.01.27.920827 (bioRxiv, 2020)

Legend:
[1] = target: the molecule itself; experiment: SDS-resistant oligomer bands on SDS-PAGE after liposome co-sedimentation
FRET or BRET = target: the molecule itself; experiment: FRET or BRET

B1: epsin1 ENTH domain, wild type (Rat Epsin1 WT ENTH 1-164) (domain or fragment)
chain: MSTSSLRRQMKNIVHNYSEAEIKVREATSNDPWGPSSSLMSEIADLTYNVVAFSEIMSMIWKRLNDHGKNWRHVYKAMTLMEYLIKTGSERVSQQCKENMYAVQTLKDFQYVDRDGKDQGVNVREKAKQLVALLRDEDRLREERAHALKTKEKLAQTATASSAA
B1: binds [1].

B2: ENTH WT (C96A A155C) domain, labelled with Atto488 maleimide or Atto532 maleimide (domain or fragment)
chain: MSTSSLRRQMKNIVHNYSEAEIKVREATSNDPWGPSSSLMSEIADLTYNVVAFSEIMSMIWKRLNDHGKNWRHVYKAMTLMEYLIKTGSERVSQQAKENMYAVQTLKDFQYVDRDGKDQGVNVREKAKQLVALLRDEDRLREERAHALKTKEKLCQTATASSAA
modifications: Atto488 maleimide (donor population) or Atto532 maleimide (acceptor population), by cysteine modification
B2: binds (FRET or BRET).
